Target: the molecule itself
Test: native gel or EMSA; purified His-GSAATAt (300 µM), no pretreatment, non-reducing/non-denaturing polyacrylamide gel; dimer to monomers

B1: recombinant His-tagged Arabidopsis glutamate-1-semialdehyde aminotransferase 1, wild type (enzyme)
chain: not shown
notes: Arabidopsis thaliana GSAAT1 (AtGSA1, AT5G63570), mature protein without the transit peptide 1-38 according to UniProt P42799; pET-28a(+); the methods remove 1-38; also called His-GSAAT; His-GSAATAt; source: E. coli Rosetta, purified (Ni-NTA); not shown: His6, N-terminal, kept
  stoichiometry N: 2

Reference: article PMC12678314, “Redox regulation of glutamate-1-semialdehyde aminotransferase modulates the synthesis of 5-aminolevulinic acid in Arabidopsis” (Frontiers in Plant Science, 2025)
